Data as given in patent US20120141538A1 (UNIVERSITE PIERRE ET MARIE CURIE PARIS VI, published 2012).
Changes are numbered by the printed parent chain.

Legend:
[1] = molecular target: T1, human CX3CR1 receptor (human, UniProt P49238 1-355); assay: competitive radioligand binding, HEK-CX3CR1 cells, [125I]-CX3CL1 tracer
T1 construct: Expressed on stably transfected HEK or CHO cells, or endogenous on human PBMC (CD8+ T cells, NK cells); also called HEK-CX3CR1 cells; CHO-CX3CR1 cells
T1 sequence: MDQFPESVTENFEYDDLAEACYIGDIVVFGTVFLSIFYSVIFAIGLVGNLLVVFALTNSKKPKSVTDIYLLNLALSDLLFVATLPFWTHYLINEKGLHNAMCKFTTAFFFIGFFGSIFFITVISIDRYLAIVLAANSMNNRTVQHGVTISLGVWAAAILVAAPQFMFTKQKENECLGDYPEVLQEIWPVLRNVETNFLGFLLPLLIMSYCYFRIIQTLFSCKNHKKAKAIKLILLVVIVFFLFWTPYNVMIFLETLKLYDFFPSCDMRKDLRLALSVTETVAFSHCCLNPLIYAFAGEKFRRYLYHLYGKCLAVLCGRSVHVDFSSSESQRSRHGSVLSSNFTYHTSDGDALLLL
Method: (§1) Assays were performed as previously described by Moatti et al. (2001, Blood 97, 1925-8). Competitive binding to HEK-CX3CR1 and CHO-CX3CR1 cells was performed with 50 pM [¹²⁵I]-CX3CL1 (Amersham General Electric, Saclay, France) plus variable amounts of unlabeled ligand. Each concentration was assayed in duplicate. After 2 h at 37° C., cells were washed and radioactivity in the cell pellet was quantified with a gamma counter (LKB Wallac, Saint Quentin en Yvelines, France).
CX3CL1 in a competition binding, with HEK-CX3CR1 cells and [¹²⁵I]-CX3CL1 as a tracer. The F1 analogue interacted with CX3CR1, although with a lower affinity than CX3CL1. […] A similar difference in affinity was apparent when F1 and CX3CL1 were tested on CHO-CX3CR1 cells, and when the affinity of CX3CL1-Ig was compared to that of F1-Ig.

[2] = molecular target: T1, human CX3CR1 receptor; assay: competitive radioligand binding, CX3CR1-expressing HEK cells, 125I-FKN tracer
Method: as §1
(§2) Assays for determining the competitive radioligand binding of F2 and of F2-Ig to CX3CR1 were carried out as described in Example 1.8.

[3] = molecular target: T1, human CX3CR1 receptor; assay: competitive radioligand binding, CX3CR1-expressing CHO cells, 125I-FKN tracer
Method: as §1, §2

[4] = molecular target: T2, CCR5 (on HEK-CCR5 cells) (UniProt P51681 1-352, limits assumed); assay: flow cytometry of phage on cells
T2 construct: whole, on cells; also called CCR5-expressing cells

[5] = molecular target: T1, human CX3CR1 receptor; assay: flow cytometry of phage on cells

T2 sequence (P51681 whole entry): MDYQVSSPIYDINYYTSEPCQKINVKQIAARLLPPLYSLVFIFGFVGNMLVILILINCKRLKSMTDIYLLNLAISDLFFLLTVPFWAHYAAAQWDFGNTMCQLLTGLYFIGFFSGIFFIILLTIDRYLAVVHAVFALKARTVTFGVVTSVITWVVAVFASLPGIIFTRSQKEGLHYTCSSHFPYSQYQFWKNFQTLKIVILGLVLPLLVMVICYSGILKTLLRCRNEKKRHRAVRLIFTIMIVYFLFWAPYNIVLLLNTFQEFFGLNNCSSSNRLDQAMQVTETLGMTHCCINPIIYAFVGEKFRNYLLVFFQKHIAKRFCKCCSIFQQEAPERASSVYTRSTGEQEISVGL

B1: CX3CL1 (native human soluble chemokine) (ligand)
chain: QHHGVTKCNITCSKMTSKIPVALLIHYQQNQASCGKRAIILETRQHRLFCADPKEQWVKDAMQHLDRQAAALTRNG
notes: The tracer is iodinated CX3CL1 from Amersham; also called fractalkine; FKN
IC50 [1]: 0.16 nM
Log IC50 [1]: -9.79
IC50 [2]: 0.58 nM

B2: F2 (CX3CL1 analogue with N-terminal sequence QPQGVS) (ligand)
chain: B1 chain with H2P, H3Q, T6S
notes: Produced by chemical synthesis
IC50 [2]: 0.05 nM

B3: F2-Ig (F2 fused to a domain of an immunoglobulin) (Fc fusion)
chain: QPQGVSKCNITCSKMTSKIPVALLIHYQQNQASCGKRAIILETRQHRLFCADPKEQWVKDAMQHLDRQAAALTRNGAAAHPRGPTIKPCPPCKCPAPNLEGGPSVFIFPPKIKDVLMISLSPIVTCVVVDVSEDDPDVQISWFVNNVEVHTAQTQTHREDYDSTLRVVSALPIQHQDWMSGKAFACAVNNKDLPAPIGRTISKPKGSVRAPQVYVLPPPEEEMTKKQVTLTCMVTDFMPEDIYVEWTNNGKTELNYKNTEPVLDSDGSYFMYSKLRVEKKNWVERNSYSCSVVHEGLHNHHTTKSFSRPPGK
IC50 [3]: 0.39 nM

B4: CX3CL1-Ig (CX3CL1 chemokine domain fused to murine Fc) (Fc fusion)
chain: QHHGVTKCNITCSKMTSKIPVALLIHYQQNQASCGKRAIILETRQHRLFCADPKEQWVKDAMQHLDRQAAALTRNGEPRGPTIKPCPPCKCPAPNLEGGPSVFIFPPKIKDVLMISLSPIVTCVVVDVSEDDPDVQISWFVNNVEVHTAQTQTHREDYNSTLRVVSALPIQHQDWMSGKAFACAVNNKDLPAPIERTISKPKGSVRAPQVYVLPPPEEEMTKKQVTLTCMVTDFMPEDIYVEWTNNGKTELNYKNTEPVLDSDGSYFMYSKLRVEKKNWVERNSYSCSVVHEGLHNHHTTKSFSRTPGK
notes: domain: Fcγ2a fragment; also called FKN-Ig
IC50 [3]: 1.47 nM

B5: phage-F1 (phage clone ILDNGVS) (other, not shown: large carriers)
chain: ILDNGVSKCNITCSKMTSKIPVALLIHYQQNQASCGKRAIILETRQHRLFCADPKEQWVKDAMQHLDRQAAALTRNG
binding result [4]: no binding

B6: CX3CL1-phage (human CX3CL1 chemokine domain displayed on phage) (other, not shown: large carriers)
chain: B1 chain
notes: also called phage-chemokine
binding result [4]: no binding

B7: CCL5-expressing phage (other, UniProt P13501 24-91, looked up, not shown: large carriers)
chain: SPYSSDTTPCCFAYIARPLPRAHIKEYFYTSGKCSNPAVVFVTRKNRQVCANPEKKWVREYINSLEMS
notes: Control phage
binding result [5]: no binding
